Series [1] deals with amyloid-β in whole brain lysates of Tg2576 mice (human). The experiment in a line: non-reducing Tris-Tricine SDS-PAGE with Western blot (SDS-stable bands); whole brain lysates of Tg2576 mice prepared with or without 100 μM TPEN; blots with anti-Aβ (6E10) or anti-apoE; no dithiothreitol or β-mercaptoethanol.
Series [2] deals with the molecule itself. The description is as above.

Several values for one entry are separate records, joined by “and”; a condition that tells them apart may be missing. Equal values may be shown once.

For “amyloid-β in whole brain lysates of Tg2576 mice (peptide)”, the stoichiometry N in series [1] was 4 and 3.

B1: apolipoprotein E in whole brain lysates of Tg2576 mice (natural protein, mouse (endogenous in Tg2576 mouse brain), UniProt P08226 19-311, looked up)
chain: EGEPEVTDQLEWQSNQPWEQALNRFWDYLRWVQTLSDQVQEELQSSQVTQELTALMEDTMTEVKAYKKELEEQLGPVAEETRARLGKEVQAAQARLGADMEDLRNRLGQYRNEVHTMLGQSTEEIRARLSTHLRKMRKRLMRDAEDLQKRLAVYKAGAREGAERGVSAIRERLGPLVEQGRQRTANLGAGAAQPLRDRAQAFGDRIRGRLEEVGNQARDRLEEVREHMEEVRSKMEEQTQQIRLQAEIFQARLKGWFEPIVEDMHRQWANLMEKIQASVATNPIITPVAQENQ
notes: Apolipoprotein E endogenous in mouse brain; also called apoE; apoE monomers; source: endogenous, Tg2576 mouse brain lysate
B1: the “stoichiometry N” value in series [2] is 2.

The values are drawn from PMC7037199 (International Journal of Molecular Sciences, 2020).
